Changes are numbered by the printed parent chain.
Key:
di huNKG2D ECD Fc avi = target: T1, di huNKG2D ECD Fc avi (human, biotinylated at the avi-tag); experiment: SPR Biacore; IgG captured by anti-Fab, antigen analyte; TraceDrawer fit
T1 construct: Dimeric fusion of human NKG2D ECD to the C-terminus of an avi-tagged human IgG1 Fc
Description: (§1) Around 1500 resonance units (RU) of the capture antibody (10 μg/ml human Fab Capture Kit, GE Healthcare Life Sciences, #28958325) were coupled onto a CM5 chip (GE Healthcare, #BR-1005-30) using a BIACORE® B4000 instrument (GE Healthcare) at pH 5.0 by using an amine coupling kit supplied by GE Healthcare. The sample and system buffer was PBS-T (10 mM phosphate buffered saline including 0.05% TWEEN® (polysorbate) 20) pH 7.4. The flow cells were set to 25° C.—and the sample block set to 12° C.—and primed twice with running buffer. The antibody was captured by injecting a ˜10 μg/ml solution for 60 sec at a flow rate of 10 μl/min. Association was measured by injection of di huNKG2D ECD Fc avi (SEQ ID NO: 96) or di cyNKG2D ECD Fc avi (SEQ ID NO: 97) in various concentrations in solution for 180 s at a flow rate of 30 μl/min starting with 600 nM, 300 nM, 150 nM following […] dilutions. The dissociation phase was monitored for up to 450 s and triggered by switching from the sample solution to running buffer. The surface was regenerated by 2×90 s washing with a glycine pH 2.1 solution at a flow rate of 30 μl/min and an additional stabilization period of 180 s. Bulk refractive index differences were corrected by subtracting the response obtained from an anti-human Fab surface. Blank injections were also subtracted (=double referencing). For calculation of KD, kₐ and kd (see Table 8), the Langmuir 1:1 model in the BIACORE® 4000 Evaluation software 1.1 (GE Healthcare) or TraceDrawer 1.6.1 (Ridgeview Instruments AB) were used.

[1] = target: T2, human NKG2D expressed on cells (human, UniProt P26718 1-216); experiment: flow cytometry on NKG2D-positive NK92 cells, anti-human Fc secondary antibody
T2 construct: the cell type is named under assay; also called NKG2D on NK92 cells; HEK293T human NKG2D
T2 chain: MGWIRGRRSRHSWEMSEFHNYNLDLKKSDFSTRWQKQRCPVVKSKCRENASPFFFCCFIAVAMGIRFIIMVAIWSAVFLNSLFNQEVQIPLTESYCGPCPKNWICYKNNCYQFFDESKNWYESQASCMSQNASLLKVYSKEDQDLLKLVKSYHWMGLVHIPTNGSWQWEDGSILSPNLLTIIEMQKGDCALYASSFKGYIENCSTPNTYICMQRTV
Description: Viability of NK92 cells or tumor cells (MKN-45, LS180) was checked and cells were re-suspended and adjusted to a density of 1 mio cells/ml. 100 μl per well of this cell suspension (containing 0.1 mio cells) were seeded into a 96 well round bottom plate. The plate was centrifuged for 4 min at 400×g and the supernatant was removed. Then 40 μl of the diluted antibodies or FACS buffer were added to the cells and incubated for 30 min at 4° C. After the incubation the cells were washed twice with 150 μl FACS buffer per well. […] The cells were incubated for an additional 30 min at 4° C. To remove unbound antibody, the cells were washed again twice with 150 μl per well FACS buffer. To fix the cells, 100 μl of FACS buffer containing 1% PFA were added to the wells. Before measuring, the cells were re-suspended in 150 μl FACS buffer. The fluorescence was measured using a BD flow cytometer.

di cyNKG2D ECD Fc avi = target: T3, di cyNKG2D ECD Fc avi (cynomolgus, biotinylated at the avi-tag); experiment: SPR Biacore; IgG captured by anti-Fab, antigen analyte; TraceDrawer fit
T3 construct: Dimeric fusion of cynomolgus NKG2D ECD to the C-terminus of an avi-tagged human IgG1 Fc; also called recombinant cynomolgus NKG2D
Description: as §1

T3 sequence (chain, as listed by the source limits assumed): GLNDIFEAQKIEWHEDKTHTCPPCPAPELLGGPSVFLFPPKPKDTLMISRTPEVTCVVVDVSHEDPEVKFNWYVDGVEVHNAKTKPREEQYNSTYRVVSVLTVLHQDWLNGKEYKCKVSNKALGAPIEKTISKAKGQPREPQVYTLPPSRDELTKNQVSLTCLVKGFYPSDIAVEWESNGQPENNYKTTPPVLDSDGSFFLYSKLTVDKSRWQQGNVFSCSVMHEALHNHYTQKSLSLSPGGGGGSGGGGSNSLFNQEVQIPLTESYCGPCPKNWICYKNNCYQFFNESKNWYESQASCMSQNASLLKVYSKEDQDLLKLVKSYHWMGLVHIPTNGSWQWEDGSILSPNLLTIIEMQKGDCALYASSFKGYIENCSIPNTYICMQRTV

B1: anti-NKG2D antibody 5C5 (IgG) (antibody, V domains shown)
VH: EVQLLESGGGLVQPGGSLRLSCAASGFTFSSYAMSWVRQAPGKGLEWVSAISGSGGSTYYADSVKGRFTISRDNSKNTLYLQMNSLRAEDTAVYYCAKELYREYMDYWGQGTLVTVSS
VL: SSELTQDPAVSVALGQTVRITCQGDSLRSYYASWYQQKPGQAPVLVIYGKNNRPSGIPDRFSGSSSGNTASLTITGAQAEDEADYYCNSRDSFSIHQNVFGGGTKLTVL
notes: also called clone 5C5
Kd (di huNKG2D ECD Fc avi): 63 nM | koff (di huNKG2D ECD Fc avi): 0.014 s⁻¹ | kon (di huNKG2D ECD Fc avi): 220000 M⁻¹ s⁻¹

B2: anti-NKG2D antibody clone 395 (antibody, V domains shown)
VH: QEQLEQSGGGLVTPGGSLKLCCTASGFDFNTFWMTWVRQAPGKGLEWIGCIHGGSGSRDYASWVNGRFTLSRDIDQSTACLQVNSLTAADTAMYYCARPGYRSWSKTFDLWGQGTMVTVSS
VL: DIQMTQSPSSLSASVGDRVTITCRASQDISGALNWYQQKPGKAPNLLIYAASSLQSGVPSRFSGSGSGTDYTLTISSLQPEDFATYYCQQANSFPLTFGGGTKVEIK
notes: From transgenic rabbits; rabbit VH, human VL
EC50 (read off the curve) [1]: ~2 nM

B3: anti-NKG2D antibody clone 296 (antibody, V domains shown)
VH: EVQLLESGGGLVQPGGSLRLSCAASGFTFSSYAMSWVRQAPGKGLEWVSAIGIGGGGTYYADSVKGRFTISRDNSKNTLYLQMNSLRAEDTAVYHCAKGASFDFINFFPYWGQGTLVTVSS
VL: B2 VL with D28G, G31N, A32D, N34A, N45K, Y71F, A91T, N92Y, F94T
notes: From transgenic rabbits
Kd (di cyNKG2D ECD Fc avi): 710 nM | koff (di cyNKG2D ECD Fc avi): 0.09 s⁻¹ | kon (di cyNKG2D ECD Fc avi): 130000 M⁻¹ s⁻¹

Source: patent US20240067734A1 (Hoffmann-La Roche, published 2024)
